Data published in IntAct's records for PubMed 23001144.

Target: tir_eco27 tir (UniProt B7UM99)
Sequence (B7UM99 whole entry): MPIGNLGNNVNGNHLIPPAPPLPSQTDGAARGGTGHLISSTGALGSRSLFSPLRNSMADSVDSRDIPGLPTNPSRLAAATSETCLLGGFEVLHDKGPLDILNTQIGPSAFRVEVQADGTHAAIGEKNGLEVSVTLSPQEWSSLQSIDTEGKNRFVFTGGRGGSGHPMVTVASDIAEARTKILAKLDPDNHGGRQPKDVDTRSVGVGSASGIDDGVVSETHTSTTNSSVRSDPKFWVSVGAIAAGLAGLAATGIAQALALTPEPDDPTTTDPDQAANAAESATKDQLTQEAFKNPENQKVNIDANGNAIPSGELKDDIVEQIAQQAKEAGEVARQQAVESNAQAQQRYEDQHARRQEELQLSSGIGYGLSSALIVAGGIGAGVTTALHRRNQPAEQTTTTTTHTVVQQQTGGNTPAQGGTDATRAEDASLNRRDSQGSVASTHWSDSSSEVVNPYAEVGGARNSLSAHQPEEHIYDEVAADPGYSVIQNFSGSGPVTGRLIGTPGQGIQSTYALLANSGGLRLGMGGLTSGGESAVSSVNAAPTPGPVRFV

Tyrosine-protein phosphatase non-receptor type 6 (Homo sapiens), P29350 C453S, sequence (P29350 whole entry C453S): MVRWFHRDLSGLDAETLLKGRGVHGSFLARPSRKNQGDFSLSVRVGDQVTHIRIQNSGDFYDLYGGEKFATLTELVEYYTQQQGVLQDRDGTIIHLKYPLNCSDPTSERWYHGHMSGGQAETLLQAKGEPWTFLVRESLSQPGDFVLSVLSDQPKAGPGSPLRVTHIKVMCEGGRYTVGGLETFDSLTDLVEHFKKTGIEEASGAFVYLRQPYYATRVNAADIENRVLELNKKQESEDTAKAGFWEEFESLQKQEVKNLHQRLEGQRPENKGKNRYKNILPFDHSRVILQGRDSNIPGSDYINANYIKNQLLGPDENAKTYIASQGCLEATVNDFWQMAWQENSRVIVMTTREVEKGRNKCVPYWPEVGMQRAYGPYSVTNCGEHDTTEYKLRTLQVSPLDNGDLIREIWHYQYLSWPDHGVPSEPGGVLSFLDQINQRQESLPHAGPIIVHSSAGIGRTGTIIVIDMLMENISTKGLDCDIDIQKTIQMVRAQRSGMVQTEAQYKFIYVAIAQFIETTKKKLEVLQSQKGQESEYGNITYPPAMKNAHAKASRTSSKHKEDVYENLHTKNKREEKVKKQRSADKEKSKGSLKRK

With “Tyrosine-protein phosphatase non-receptor type 6 (Homo sapiens), P29350 C453S” the “effect of a mutation on the interaction” value was “decreasing interaction”.
